The source of these data is US20050100989A1 (MERCK SERONO, published 2005).

By Ki is commonly meant a measure of affinity in units of concentration, obtained from inhibition or displacement.

Several values for one entry are separate records, joined by “and”; a condition that tells them apart may be missing. Identical values can stand only once.

For assay [1], the target named is T1, human FSH receptor (human, UniProt P23945 18-695).
T1 construct: whole, on cells
T1 sequence (looked up): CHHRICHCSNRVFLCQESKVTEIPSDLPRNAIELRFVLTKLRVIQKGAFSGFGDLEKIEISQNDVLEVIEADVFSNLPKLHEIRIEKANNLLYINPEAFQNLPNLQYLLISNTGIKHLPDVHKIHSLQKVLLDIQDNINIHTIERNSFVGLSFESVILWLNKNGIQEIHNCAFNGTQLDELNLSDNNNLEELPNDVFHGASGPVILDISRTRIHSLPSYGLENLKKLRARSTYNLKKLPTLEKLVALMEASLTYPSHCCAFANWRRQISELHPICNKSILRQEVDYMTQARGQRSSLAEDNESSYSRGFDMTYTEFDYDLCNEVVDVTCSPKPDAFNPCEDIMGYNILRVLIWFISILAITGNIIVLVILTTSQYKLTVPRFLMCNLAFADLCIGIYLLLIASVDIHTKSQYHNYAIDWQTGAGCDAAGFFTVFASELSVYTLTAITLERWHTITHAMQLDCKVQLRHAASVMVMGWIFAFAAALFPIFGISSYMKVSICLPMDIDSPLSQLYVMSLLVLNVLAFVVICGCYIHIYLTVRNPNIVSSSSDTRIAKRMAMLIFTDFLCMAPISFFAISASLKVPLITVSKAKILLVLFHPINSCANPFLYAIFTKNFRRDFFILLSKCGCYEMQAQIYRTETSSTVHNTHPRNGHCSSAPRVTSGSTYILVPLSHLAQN
Description: competition with 125I radiolabelled FSH on membrane preparations with human FSH receptor.

The target of assay [2] is T1, human FSH receptor. The assay is described as follows: cell-based or functional assay.
Assay [3] addresses T1, human FSH receptor. Description: cell-based or functional assay. The source holds these as a separate data set.
The target in assay [4] is T1, human FSH receptor. The assay is described as follows: competition with 0.4 nM 125I-FSH on CHO membranes bearing human FSHR, filtration, single site model.
Description: Large batches of CHO cells line which recombinantly express human FSH receptor or human LH receptor were grown and disrupted by nitrogen cavitation (20 min equilibration to 900 psi, followed by rapid pressure release) in 0.025 M Tris pH 7.4 containing 0.25 M sucrose, 10 mM MgCl₂, 1 mM EDTA and one part per thousand Sigma Protease Inhibitor cocktail (p8350). Following preliminary clarification (10 min×1000×g at 4° C.) the membranes fraction was pelletted (60 min×100,000×g×4° C.) by ultracentrifugation. The membranes fraction was resuspended in binding buffer (0.01 M Tris pH 7.4 containing 5 mM MgCl₂), protein concentration estimated by Bradford (BioRad) protein assay and stored frozen at −80° C. for future use. Typically 15 μg of membrane protein appropriately bearing FSHR or LHR was analyzed, per well, in competition assays.
Radioligand binding was evaluated in 96 well plates, 100 μl/sample well. The assay buffer was 0.01 M Tris pH 7.4 containing 5 mM MgCl₂ and 0.1% BSA and 0.3 nM ¹²⁵I-hCG (for LHR) or 0.4 nM ¹²⁵I-FSH (for FSHR). […] Nonspecific binding was determined in the presence of 500 nM unlabeled hCG or FSH. Binding was allowed to equilibrate for 90 min at 37° C. with shaking. […] Bound radioactivity was measured in an HP Cobra II gamma counter using a pre-programmed detection window specific for ¹²⁵I emission. Data were analyzed using a single site model and Graph Pad Prizm software.

B1: FSH single β-subunit mutant β E55N/V57T (mutant β-subunit expressed together with the complementary wild type α-subunit) (ligand)
chain 1: not shown
chain 2: NSCELTNITIAIEKEECRFCISINTTWCAGYCYTRDLVYKDPARPKIQKTCTFKNLTYETVRVPGCAHHADSLYTYPVATQCHCGKCDSDSTDCTVRGLGPSYCSFGEMKE
modifications: N-linked glycosylation; extra consensus site at N55 (hyperglycosylated by shift of apparent molecular weight); N-linked glycosylation (glycoprotein made in CHO cells)
notes: also called βE55/V57T
On to B1, for which the Ki in the assay with human FSH receptor [1] was 0.86 nM. In the assay with human FSH receptor [2], the “EC50 (FSHR-coupled cAMP production)” value stood at 0.039 nM.

B2: GM-1 (FSH double glycosylation mutant: α-subunit H83N and β-subunit E55N/V57T) (ligand)
chain 1: not shown
chain 2: B1 chain 2
modifications: N-linked glycosylation (glycoprotein made in CHO-Dukx cells)
notes: Heterodimer; also called GM-1 Lot 1; GM-1 Lot 2
For B2, the “FSHR EC50 (cAMP production)” value with human FSH receptor [3] is 0.0612 nM and 0.0209 nM. Also, the Ki with human FSH receptor [4] is 1.9 nM and 2.3 nM.
